This series addresses DNMT1 (human) (UniProt P26358). In words: EMSA. The conditions noted are these: 50 mM Tris-HCl pH 7.5, 100 mM KCl (or LiCl), 2.5 mM MgCl2, 0.1 mM ZnCl2, 2 mM BME, 0.05% NP40, 5% glycerol, 0.1 mg/mL BSA, 0.1 mg/mL yeast tRNA, 30 C 1 h. In general terms: Mobility shift assays separate free from complexed probe on a gel.

Sequence of DNMT1 (human) (P26358 whole entry): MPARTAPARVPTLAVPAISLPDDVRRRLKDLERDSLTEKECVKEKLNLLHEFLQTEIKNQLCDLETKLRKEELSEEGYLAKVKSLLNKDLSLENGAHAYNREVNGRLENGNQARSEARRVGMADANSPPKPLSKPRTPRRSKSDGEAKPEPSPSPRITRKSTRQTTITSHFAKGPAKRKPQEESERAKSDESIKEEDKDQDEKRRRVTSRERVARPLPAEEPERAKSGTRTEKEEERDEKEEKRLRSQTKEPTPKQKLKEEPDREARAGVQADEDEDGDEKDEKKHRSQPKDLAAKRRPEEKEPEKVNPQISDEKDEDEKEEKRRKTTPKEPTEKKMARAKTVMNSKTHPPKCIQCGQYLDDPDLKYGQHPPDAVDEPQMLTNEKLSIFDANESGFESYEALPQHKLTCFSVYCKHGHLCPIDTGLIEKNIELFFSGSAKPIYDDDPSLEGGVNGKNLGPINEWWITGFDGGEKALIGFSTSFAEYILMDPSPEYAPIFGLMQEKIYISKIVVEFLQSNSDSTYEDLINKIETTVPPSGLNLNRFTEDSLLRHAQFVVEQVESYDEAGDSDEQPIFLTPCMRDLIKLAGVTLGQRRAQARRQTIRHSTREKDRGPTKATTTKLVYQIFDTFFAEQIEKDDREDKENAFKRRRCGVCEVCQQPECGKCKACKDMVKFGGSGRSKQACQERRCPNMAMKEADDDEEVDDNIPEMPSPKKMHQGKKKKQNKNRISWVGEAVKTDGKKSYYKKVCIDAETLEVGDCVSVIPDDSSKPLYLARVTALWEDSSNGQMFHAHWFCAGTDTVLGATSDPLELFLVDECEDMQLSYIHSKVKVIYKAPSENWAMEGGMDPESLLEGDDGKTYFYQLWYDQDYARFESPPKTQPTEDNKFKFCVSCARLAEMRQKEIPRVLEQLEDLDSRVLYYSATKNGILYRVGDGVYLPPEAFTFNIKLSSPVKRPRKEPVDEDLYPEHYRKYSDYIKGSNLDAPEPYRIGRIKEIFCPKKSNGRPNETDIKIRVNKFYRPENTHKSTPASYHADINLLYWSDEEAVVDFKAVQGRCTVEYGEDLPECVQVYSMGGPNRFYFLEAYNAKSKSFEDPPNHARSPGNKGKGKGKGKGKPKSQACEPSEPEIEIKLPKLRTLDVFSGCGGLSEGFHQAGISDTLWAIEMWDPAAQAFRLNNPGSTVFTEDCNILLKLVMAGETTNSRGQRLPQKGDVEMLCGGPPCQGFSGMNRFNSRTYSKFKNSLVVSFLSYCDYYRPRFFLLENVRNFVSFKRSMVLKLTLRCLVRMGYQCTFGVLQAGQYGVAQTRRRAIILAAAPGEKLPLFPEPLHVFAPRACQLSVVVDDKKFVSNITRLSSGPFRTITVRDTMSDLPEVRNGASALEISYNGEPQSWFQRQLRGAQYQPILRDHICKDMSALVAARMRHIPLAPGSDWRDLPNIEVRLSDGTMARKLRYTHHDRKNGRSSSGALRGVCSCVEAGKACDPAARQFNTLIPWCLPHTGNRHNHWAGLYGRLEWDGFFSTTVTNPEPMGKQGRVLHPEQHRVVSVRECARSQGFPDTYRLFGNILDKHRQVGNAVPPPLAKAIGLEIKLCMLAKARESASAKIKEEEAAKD

The Kd is a measure of binding affinity in units of concentration. The low end stands for higher affinity, the high end for lower affinity. Sequence “UUCUGCCCUCCCGUCACCCCUGUUUCUGGCACCAGGAAUCCCCAACAUGCACUGAUGUUGUGUUUUUAACAUGUCAAUCUGUCCGUUCACAUGUGUGGUACAUGGUGUUUGUGGCCUUGGCUGACAUGAAGCUGUUGUGUGAGGUUCGCUUAUCAACUAAUGAUUUAGUGAUCAAAUUGUGCAGUACUUUGUGCAUUCUGGAUUUUAAAAGUUUUUUAUUAUGCAUUAUAUCAAAUCUACCACUGUAUGAGUGGAAAUUAAGACUUUAUGUAGUUUUUAUAUGUUGUAAUAUUUCUUCAAAUAAAUCUCUCCUAUAAACCA [DNMT1 3'UTR WT]” displayed a Kd of 69 nM.

For “UUCUGCCCUCCCGUCACCCCUGUUUCUGGCACCAGGAAUCCCCAACAUGCACUGACACCACACUUUUAACAUGUCAAUCUGUCCGUUCACACACACAACACACAACACCCACAGCCUUGGCUGACAUGAAGCCACCACACAAGGUUCGCUUAUCAACUAAUGAUUUAGUGAUCAAAUUGUGCAGUACUUUGUGCAUUCUGGAUUUUAAAAGUUUUUUAUUAUGCAUUAUAUCAAAUCUACCACUGUAUGAGUGGAAAUUAAGACUUUAUGUAGUUUUUAUAUGUUGUAAUAUUUCUUCAAAUAAAUCUCUCCUAUAAACCA”, the binding signal (fold weaker than WT 3'UTR) came out at 3.

Take “UUCCACCCUCCCACCACCCCUACUUCCAGCACCAGGAAUCCCCAACACACACCAACAUCACAUUUUUAACACAUCAAUCUACCCACUCACACACACAACACACAACACUUACGGCCUCAGCCAACACAAAGCCAUCACACAAGACUCGCUUAUCAACUAACAAUUUAACGAUCAAAUCACACAACACUUUACGCAUUCCAGAUUUUAAAAACUUUUUAUUACACAUUAUAUCAAAUCUACCACCAUACAAGCAGAAAUUAAGACUUUACAUAACUUUUAUACAUUACAAUAUUUCUUCAAAUAAAUCUCUCCUAUAAACCA [DNMT1 3'UTR GU mutant (all GU/UG to AC/CA)]”: the binding signal (fold weaker than WT 3'UTR) stood at 2.
